B1: human ORC2 (natural protein, UniProt Q13416 1-577, looked up)
chain: MSKPELKEDKMLEVHFVGDDDVLNHILDREGGAKLKKERAQLLVNPKKIIKKPEYDLEEDDQEVLKDQNYVEIMGRDVQESLKNGSATGGGNKVYSFQNRKHSEKMAKLASELAKTPQKSVSFSLKNDPEITINVPQSSKGHSASDKVQPKNNDKSEFLSTAPRSLRKRLIVPRSHSDSESEYSASNSEDDEGVAQEHEEDTNAVIFSQKIQAQNRVVSAPVGKETPSKRMKRDKTSDLVEEYFEAHSSSKVLTSDRTLQKLKRAKLDQQTLRNLLSKVSPSFSAELKQLNQQYEKLFHKWMLQLHLGFNIVLYGLGSKRDLLERFRTTMLQDSIHVVINGFFPGISVKSVLNSITEEVLDHMGTFRSILDQLDWIVNKFKEDSSLELFLLIHNLDSQMLRGEKSQQIIGQLSSLHNIYLIASIDHLNAPLMWDHAKQSLFNWLWYETTTYSPYTEETSYENSLLVKQSGSLPLSSLTHVLRSLTPNARGIFRLLIKYQLDNQDNPSYIGLSFQDFYQQCREAFLVNSDLTLRAQLTEFRDHKLIRTKKGTDGVEYLLIPVDNGTLTDFLEKEEEEA
notes: human origin recognition complex subunit 2 (hORC2); Subunit of m1; also called hORC2; source: S. cerevisiae YC658, co-overexpressed with the other hORC1-5 subunits; in lysate (co-purification) and purified as hORC1-5
B2: human ORC3 (natural protein, UniProt Q9UBD5 1-711, looked up)
chain: MATSSMSKGCFVFKPNSKKRKISLPIEDYFNKGKNEPEDSKLRFETYQLIWQQMKSENERLQEELNKNLFDNLIEFLQKSHSGFQKNSRDLGGQIKLREIPTAALVLGVNVTDHDLTFGSLTEALQNNVTPYVVSLQAKDCPDMKHFLQKLISQLMDCCVDIKSKEEESVHVTQRKTHYSMDSLSSWYMTVTQKTDPKMLSKKRTTSSQWQSPPVVVILKDMESFATKVLQDFIIISSQHLHEFPLILIFGIATSPIIIHRLLPHAVSSLLCIELFQSLSCKEHLTTVLDKLLLTTQFPFKINEKVLQVLTNIFLYHDFSVQNFIKGLQLSLLEHFYSQPLSVLCCNLPEAKRRINFLSNNQCENIRRLPSFRRYVEKQASEKQVALLTNERYLKEETQLLLENLHVYHMNYFLVLRCLHKFTSSLPKYPLGRQIRELYCTCLEKNIWDSEEYASVLQLLRMLAKDELMTILEKCFKVFKSYCENHLGSTAKRIEEFLAQFQSLDETKEEEDASGSQPKGLQKTDLYHLQKSLLEMKELRRSKKQTKFEVLRENVVNFIDCLVREYLLPPETQPLHEVVYFSAAHALREHLNAAPRIALHTALNNPYYYLKNEALKSEEGCIPNIAPDICIAYKLHLECSRLINLVDWSEAFATVVTAAEKMDANSATSEEMNEIIHARFIRAVSELELLGFIKPTKQKTDHVARLTWGGC
notes: human origin recognition complex subunit 3 (hORC3); Subunit of m1; also called hORC3; source: S. cerevisiae YC658, co-overexpressed with the other hORC1-5 subunits; in lysate (co-purification) and purified as hORC1-5
B3: human ORC4 (natural protein, UniProt O43929 1-436, looked up)
chain: MSSRKSKSNSLIHTECLSQVQRILRERFCRQSPHSNLFGVQVQYKHLSELLKRTALHGESNSVLIIGPRGSGKTMLINHALKELMEIEEVSENVLQVHLNGLLQINDKIALKEITRQLNLENVVGDKVFGSFAENLSFLLEALKKGDRTSSCPVIFILDEFDLFAHHKNQTLLYNLFDISQSAQTPIAVIGLTCRLDILELLEKRVKSRFSHRQIHLMNSFGFPQYVKIFKEQLSLPAEFPDKVFAEKWNENVQYLSEDRSVQEVLQKHFNISKNLRSLHMLLMLALNRVTASHPFMTAVDLMEASQLCSMDSKANIVHGLSVLEICLIIAMKHLNDIYEEEPFNFQMVYNEFQKFVQRKAHSVYNFEKPVVMKAFEHLQQLELIKPMERTSGNSQREYQLMKLLLDNTQIMNALQKYPNCPTDVRQWATSSLSWL
notes: human origin recognition complex subunit 4 (hORC4); Subunit of m1; also called hORC4; source: S. cerevisiae YC658, co-overexpressed with the other hORC1-5 subunits; in lysate (co-purification) and purified as hORC1-5
B4: human ORC5 (natural protein, UniProt O43913 1-435, looked up)
chain: MPHLENVVLCRESQVSILQSLFGERHHFSFPSIFIYGHTASGKTYVTQTLLKTLELPHVFVNCVECFTLRLLLEQILNKLNHLSSSEDGCSTEITCETFNDFVRLFKQVTTAENLKDQTVYIVLDKAEYLRDMEANLLPGFLRLQELADRNVTVLFLSEIVWEKFRPNTGCFEPFVLYFPDYSIGNLQKILSHDHPPEYSADFYAAYINILLGVFYTVCRDLKELRHLAVLNFPKYCEPVVKGEASERDTRKLWRNIEPHLKKAMQTVYLREISSSQWEKLQKDDTDPGQLKGLSAHTHVELPYYSKFILIAAYLASYNPARTDKRFFLKHHGKIKKTNFLKKHEKTSNHLLGPKPFPLDRLLAILYSIVDSRVAPTANIFSQITSLVTLQLLTLVGHDDQLDGPKYKCTVSLDFIRAIARTVNFDIIKYLYDFL
notes: human origin recognition complex subunit 5 (hORC5); Subunit of m1; also called hORC5; source: S. cerevisiae YC658, co-overexpressed with the other hORC1-5 subunits; in lysate (co-purification) and purified as hORC1-5

Experiments:
human ORC1 = target: T1, human ORC1 (human, UniProt Q13415 1-861); experiment: affinity co-purification; hORC1-5 co-overexpressed in G1-arrested budding yeast; StrepXT column on the N-terminal Strep tag of hORC1, then heparin column and glycerol gradient; details: partners not purified
T1 construct: human origin recognition complex subunit 1 (hORC1); Subunit of m1; also called hORC1; hORC1 N-tag; source: S. cerevisiae YC658, co-overexpressed with hORC2-5; in lysate (co-purification) and purified as hORC1-5 (StrepXT, heparin, glycerol gradient); not shown: Twin Strep-tag, N-terminal, kept
T1 sequence (looked up): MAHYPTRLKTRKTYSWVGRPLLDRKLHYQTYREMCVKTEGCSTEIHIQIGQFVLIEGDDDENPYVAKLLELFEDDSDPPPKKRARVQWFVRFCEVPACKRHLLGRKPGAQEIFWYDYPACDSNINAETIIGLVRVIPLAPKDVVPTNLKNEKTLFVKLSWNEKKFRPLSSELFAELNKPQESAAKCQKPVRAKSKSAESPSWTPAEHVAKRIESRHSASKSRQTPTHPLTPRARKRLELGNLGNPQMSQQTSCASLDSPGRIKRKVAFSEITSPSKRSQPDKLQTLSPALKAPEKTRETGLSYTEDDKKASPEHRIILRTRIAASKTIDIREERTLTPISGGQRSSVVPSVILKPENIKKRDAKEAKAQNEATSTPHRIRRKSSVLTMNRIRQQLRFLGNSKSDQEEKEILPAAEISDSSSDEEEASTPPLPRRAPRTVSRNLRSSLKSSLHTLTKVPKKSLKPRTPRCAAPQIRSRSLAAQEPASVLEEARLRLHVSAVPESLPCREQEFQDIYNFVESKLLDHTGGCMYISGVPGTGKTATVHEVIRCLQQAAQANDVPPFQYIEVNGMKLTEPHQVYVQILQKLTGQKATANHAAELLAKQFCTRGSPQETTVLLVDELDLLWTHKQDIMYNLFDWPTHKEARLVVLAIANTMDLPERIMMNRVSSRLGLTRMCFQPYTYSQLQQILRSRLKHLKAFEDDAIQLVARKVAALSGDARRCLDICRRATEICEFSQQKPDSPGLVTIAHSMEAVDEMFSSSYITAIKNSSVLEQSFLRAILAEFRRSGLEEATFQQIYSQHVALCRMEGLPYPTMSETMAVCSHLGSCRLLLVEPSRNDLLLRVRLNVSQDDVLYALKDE

human MCM3 = target: T2, human MCM3 (human, UniProt P25205 1-808); experiment: cryo-EM structure; hOCCM from a low-salt washed pre-RC reaction with ATPγS, eluted from the DNA beads with DNaseI; 6.09 Å; details: both partners purified
T2 construct: Subunit of m6; also called hMCM3; source: HEK293-F, co-expressed hMCM2-7; in lysate (co-purification) and purified as hMCM2-7 (Ni-NTA, StrepTrapXT)
T2 sequence (looked up): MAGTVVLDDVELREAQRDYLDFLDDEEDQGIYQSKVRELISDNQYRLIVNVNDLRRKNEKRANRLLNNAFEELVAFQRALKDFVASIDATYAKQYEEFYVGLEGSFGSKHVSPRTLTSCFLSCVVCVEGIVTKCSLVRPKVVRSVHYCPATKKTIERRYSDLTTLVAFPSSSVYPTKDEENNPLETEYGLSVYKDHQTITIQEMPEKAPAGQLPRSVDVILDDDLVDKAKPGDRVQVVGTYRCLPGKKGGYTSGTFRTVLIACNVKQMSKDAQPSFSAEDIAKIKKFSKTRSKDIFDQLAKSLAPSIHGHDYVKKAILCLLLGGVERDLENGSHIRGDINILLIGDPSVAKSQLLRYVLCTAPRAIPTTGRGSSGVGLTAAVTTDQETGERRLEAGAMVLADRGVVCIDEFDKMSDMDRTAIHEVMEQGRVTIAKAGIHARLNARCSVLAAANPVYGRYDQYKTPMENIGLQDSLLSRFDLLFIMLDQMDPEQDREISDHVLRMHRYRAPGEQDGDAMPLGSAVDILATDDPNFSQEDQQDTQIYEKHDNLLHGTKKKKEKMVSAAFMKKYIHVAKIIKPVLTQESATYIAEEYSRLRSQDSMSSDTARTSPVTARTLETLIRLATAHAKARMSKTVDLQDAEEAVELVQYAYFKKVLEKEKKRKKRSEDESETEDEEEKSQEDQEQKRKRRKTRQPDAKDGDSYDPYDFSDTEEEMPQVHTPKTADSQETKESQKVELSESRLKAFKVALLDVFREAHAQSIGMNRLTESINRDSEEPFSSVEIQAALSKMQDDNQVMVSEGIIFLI

human MCM2 = target: T3, human MCM2 (human, UniProt P49736 1-904); experiment: as above; details: both partners purified
T3 construct: human MCM2 (hMCM2); Subunit of m6; also called hMCM2; source: HEK293-F, co-expressed hMCM2-7; in lysate (co-purification) and purified as hMCM2-7 (Ni-NTA, StrepTrapXT); not shown: twin Strep, N-terminal, kept
T3 sequence (P49736 whole entry): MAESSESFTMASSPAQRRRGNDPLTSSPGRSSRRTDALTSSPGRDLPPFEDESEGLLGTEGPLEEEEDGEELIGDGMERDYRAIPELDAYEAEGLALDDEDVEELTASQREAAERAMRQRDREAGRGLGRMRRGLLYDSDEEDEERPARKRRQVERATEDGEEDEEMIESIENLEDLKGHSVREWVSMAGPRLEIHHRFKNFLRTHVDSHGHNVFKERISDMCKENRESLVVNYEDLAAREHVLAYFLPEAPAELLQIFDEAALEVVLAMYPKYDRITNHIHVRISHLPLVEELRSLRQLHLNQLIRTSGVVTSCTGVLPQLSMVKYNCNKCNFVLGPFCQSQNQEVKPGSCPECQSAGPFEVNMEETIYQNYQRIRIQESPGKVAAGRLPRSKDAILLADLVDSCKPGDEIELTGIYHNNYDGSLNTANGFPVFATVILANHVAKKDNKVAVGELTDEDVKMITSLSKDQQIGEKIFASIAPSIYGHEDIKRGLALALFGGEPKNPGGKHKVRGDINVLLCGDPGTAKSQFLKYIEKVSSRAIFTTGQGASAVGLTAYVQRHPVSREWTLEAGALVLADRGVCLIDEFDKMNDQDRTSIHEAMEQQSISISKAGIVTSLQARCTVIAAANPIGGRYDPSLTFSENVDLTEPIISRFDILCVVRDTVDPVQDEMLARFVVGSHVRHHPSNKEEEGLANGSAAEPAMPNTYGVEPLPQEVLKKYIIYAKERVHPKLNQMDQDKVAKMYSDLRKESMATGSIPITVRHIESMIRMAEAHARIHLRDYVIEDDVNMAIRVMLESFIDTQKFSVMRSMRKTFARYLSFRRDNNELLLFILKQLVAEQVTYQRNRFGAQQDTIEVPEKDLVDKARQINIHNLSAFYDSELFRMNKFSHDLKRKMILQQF

human MCM6 = target: T4, human MCM6 (human, UniProt Q14566 1-821); experiment: as above; details: both partners purified
T4 construct: Subunit of m6; also called hMCM6; source: HEK293-F, co-expressed hMCM2-7; in lysate (co-purification) and purified as hMCM2-7 (Ni-NTA, StrepTrapXT)
T4 sequence (looked up): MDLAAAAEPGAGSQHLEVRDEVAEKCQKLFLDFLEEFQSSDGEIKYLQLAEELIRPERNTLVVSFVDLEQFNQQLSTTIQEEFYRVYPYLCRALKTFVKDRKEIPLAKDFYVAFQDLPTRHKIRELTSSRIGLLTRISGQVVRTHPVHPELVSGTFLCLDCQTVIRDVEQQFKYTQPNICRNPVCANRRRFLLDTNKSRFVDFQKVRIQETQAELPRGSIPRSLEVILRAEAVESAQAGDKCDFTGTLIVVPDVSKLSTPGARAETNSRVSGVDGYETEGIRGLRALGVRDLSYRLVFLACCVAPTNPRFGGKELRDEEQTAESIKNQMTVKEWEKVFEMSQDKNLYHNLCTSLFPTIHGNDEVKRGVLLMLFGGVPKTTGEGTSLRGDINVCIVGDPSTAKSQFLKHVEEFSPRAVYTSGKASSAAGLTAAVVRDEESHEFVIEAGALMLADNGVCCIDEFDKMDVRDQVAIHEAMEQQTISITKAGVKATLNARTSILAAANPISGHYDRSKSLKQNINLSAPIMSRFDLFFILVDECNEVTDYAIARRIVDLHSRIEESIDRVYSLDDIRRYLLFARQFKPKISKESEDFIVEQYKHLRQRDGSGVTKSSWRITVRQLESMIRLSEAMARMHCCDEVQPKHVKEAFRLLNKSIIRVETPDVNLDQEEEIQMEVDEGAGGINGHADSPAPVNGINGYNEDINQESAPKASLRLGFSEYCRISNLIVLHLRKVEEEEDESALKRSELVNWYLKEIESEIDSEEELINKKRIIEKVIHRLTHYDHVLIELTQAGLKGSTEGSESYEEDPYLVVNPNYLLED

Binder	binding result (human ORC1)	binding result (human MCM3)	binding result (human MCM2)	binding result (human MCM6)
B1	binds	binds		
B2	binds		binds	
B3	binds			binds
B4	binds			binds

Source: paper PMC11711466, “Reconstitution of human DNA licensing and the structural and functional analysis of key intermediates” (Nature Communications, 2024)
